From patent US7060284

Biological target: HER-2 protein (human p185 HER-2 receptor) (human) (UniProt P04626)
Assay: flow cytometry on SKBR3 cells, control sample

- Mean Cell Fluorescence: 0.647
Substance: negative control sera (antibody)
